Laboratory results published in IntAct's records for PubMed 15070730.

B1: WW domain-containing oxidoreductase (Homo sapiens), Q9NZC7 (parent)
chain: MAALRYAGLDDTDSEDELPPGWEERTTKDGWVYYANHTEEKTQWEHPKTGKRKRVAGDLPYGWEQETDENGQVFFVDHINKRTTYLDPRLAFTVDDNPTKPTTRQRYDGSTTAMEILQGRDFTGKVVVVTGANSGIGFETAKSFALHGAHVILACRNMARASEAVSRILEEWHKAKVEAMTLDLALLRSVQHFAEAFKAKNVPLHVLVCNAATFALPWSLTKDGLETTFQVNHLGHFYLVQLLQDVLCRSAPARVIVVSSESHRFTDINDSLGKLDFSRLSPTKNDYWAMLAYNRSKLCNILFSNELHRRLSPRGVTSNAVHPGNMMYSNIHRSWWVYTLLFTLARPFTKSMQQGAATTVYCAAVPELEGLGGMYFNNCCRCMPSPEAQSEETARTLWALSERLIQERLGSQSG
partner: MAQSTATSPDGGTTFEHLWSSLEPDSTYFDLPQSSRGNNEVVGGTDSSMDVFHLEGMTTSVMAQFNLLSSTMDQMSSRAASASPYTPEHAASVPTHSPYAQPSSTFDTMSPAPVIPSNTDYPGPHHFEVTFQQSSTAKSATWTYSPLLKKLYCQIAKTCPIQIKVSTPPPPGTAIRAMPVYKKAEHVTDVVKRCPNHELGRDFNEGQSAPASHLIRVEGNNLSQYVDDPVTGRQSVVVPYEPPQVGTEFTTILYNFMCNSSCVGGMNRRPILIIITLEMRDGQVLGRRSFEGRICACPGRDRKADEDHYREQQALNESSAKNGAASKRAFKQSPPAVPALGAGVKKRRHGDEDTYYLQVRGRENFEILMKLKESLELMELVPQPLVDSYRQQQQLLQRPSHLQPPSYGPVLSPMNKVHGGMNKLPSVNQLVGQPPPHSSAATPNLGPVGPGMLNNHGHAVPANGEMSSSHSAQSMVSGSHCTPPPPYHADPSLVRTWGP
B2: Tumor protein p73 (Homo sapiens), O15350-2 (parent)
chain: B1 partner
partner: B1 chain

Variants of: B1
Conditions: with TP73, O15350-2

Row | Variant | effect of a mutation on the interaction
1 | MAALRYAGLDDTDSEDELPPGWEERTTKDGWVFYANHTEEKTQWEHPKTGKRKRVAGDLPYGWEQETDENGQVFFVDHINKRTTYLDPRLAFTVDDNPTKPTTRQRYDGSTTAMEILQGRDFTGKVVVVTGANSGIGFETAKSFALHGAHVILACRNMARASEAVSRILEEWHKAKVEAMTLDLALLRSVQHFAEAFKAKNVPLHVLVCNAATFALPWSLTKDGLETTFQVNHLGHFYLVQLLQDVLCRSAPARVIVVSSESHRFTDINDSLGKLDFSRLSPTKNDYWAMLAYNRSKLCNILFSNELHRRLSPRGVTSNAVHPGNMMYSNIHRSWWVYTLLFTLARPFTKSMQQGAATTVYCAAVPELEGLGGMYFNNCCRCMPSPEAQSEETARTLWALSERLIQERLGSQSG [Y33F] | with no effect
2 | MAALRYAGLDDTDSEDELPPGWEERTTKDGWVRYANHTEEKTQWEHPKTGKRKRVAGDLPYGWEQETDENGQVFFVDHINKRTTYLDPRLAFTVDDNPTKPTTRQRYDGSTTAMEILQGRDFTGKVVVVTGANSGIGFETAKSFALHGAHVILACRNMARASEAVSRILEEWHKAKVEAMTLDLALLRSVQHFAEAFKAKNVPLHVLVCNAATFALPWSLTKDGLETTFQVNHLGHFYLVQLLQDVLCRSAPARVIVVSSESHRFTDINDSLGKLDFSRLSPTKNDYWAMLAYNRSKLCNILFSNELHRRLSPRGVTSNAVHPGNMMYSNIHRSWWVYTLLFTLARPFTKSMQQGAATTVYCAAVPELEGLGGMYFNNCCRCMPSPEAQSEETARTLWALSERLIQERLGSQSG [Y33R] | decreasing interaction strength

Variants of: B1
Conditions: with TP73, O15350-2
Remark: another data set of the same source

Row | Variant | effect of a mutation on the interaction
3 | MAALRYAGLDDTDSEDELPPGWEERTTKDGWVRYANHTEEKTQWEHPKTGKRKRVAGDLPYGWEQETDENGQVFFVDHINKRTTYLDPRLAFTVDDNPTKPTTRQRYDGSTTAMEILQGRDFTGKVVVVTGANSGIGFETAKSFALHGAHVILACRNMARASEAVSRILEEWHKAKVEAMTLDLALLRSVQHFAEAFKAKNVPLHVLVCNAATFALPWSLTKDGLETTFQVNHLGHFYLVQLLQDVLCRSAPARVIVVSSESHRFTDINDSLGKLDFSRLSPTKNDYWAMLAYNRSKLCNILFSNELHRRLSPRGVTSNAVHPGNMMYSNIHRSWWVYTLLFTLARPFTKSMQQGAATTVYCAAVPELEGLGGMYFNNCCRCMPSPEAQSEETARTLWALSERLIQERLGSQSG [Y33R] | disrupting interaction strength
4 | MAALRYAGLDDTDSEDELPPGWEERTTKDGWVYYANHTEEKTQWEHPKTGKRKRVAGDLPRGWEQETDENGQVFFVDHINKRTTYLDPRLAFTVDDNPTKPTTRQRYDGSTTAMEILQGRDFTGKVVVVTGANSGIGFETAKSFALHGAHVILACRNMARASEAVSRILEEWHKAKVEAMTLDLALLRSVQHFAEAFKAKNVPLHVLVCNAATFALPWSLTKDGLETTFQVNHLGHFYLVQLLQDVLCRSAPARVIVVSSESHRFTDINDSLGKLDFSRLSPTKNDYWAMLAYNRSKLCNILFSNELHRRLSPRGVTSNAVHPGNMMYSNIHRSWWVYTLLFTLARPFTKSMQQGAATTVYCAAVPELEGLGGMYFNNCCRCMPSPEAQSEETARTLWALSERLIQERLGSQSG [Y61R] | with no effect

Variants of: B2
Conditions: with wwox_human WWOX, Q9NZC7

Row | Variant | effect of a mutation on the interaction
5 | MAQSTATSPDGGTTFEHLWSSLEPDSTYFDLPQSSRGNNEVVGGTDSSMDVFHLEGMTTSVMAQFNLLSSTMDQMSSRAASASPYTPEHAASVPTHSPYAQPSSTFDTMSPAPVIPSNTDYPGPHHFEVTFQQSSTAKSATWTYSPLLKKLYCQIAKTCPIQIKVSTPPPPGTAIRAMPVYKKAEHVTDVVKRCPNHELGRDFNEGQSAPASHLIRVEGNNLSQYVDDPVTGRQSVVVPYEPPQVGTEFTTILYNFMCNSSCVGGMNRRPILIIITLEMRDGQVLGRRSFEGRICACPGRDRKADEDHYREQQALNESSAKNGAASKRAFKQSPPAVPALGAGVKKRRHGDEDTYYLQVRGRENFEILMKLKESLELMELVPQPLVDSYRQQQQLLQRPSHLQPPSYGPVLSPMNKVHGGMNKLPSVNQLVGQPPPHSSAATPNLGPVGPGMLNNHGHAVPANGEMSSSHSAQSMVSGSHCTPPPPAHADPSLVRTWGP [Y487A] | disrupting interaction strength
